One assay concerns the target T1, Rev protein of HIV-1 (HIV-1, UniProt P04618 1-116).
T1 construct: also called pSG-Rev
T1 sequence: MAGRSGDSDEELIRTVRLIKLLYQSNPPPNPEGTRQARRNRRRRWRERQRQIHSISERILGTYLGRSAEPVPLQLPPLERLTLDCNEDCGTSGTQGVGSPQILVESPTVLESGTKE
The assay is described as follows: gel retardation of the Rev-RRE RNA complex.

Assay [1] concerns the target T2, GST-Rev fusion protein produced in bacteria (HIV-1, UniProt P04618 1-116).
T2 construct: also called GXT-Rev
T2 sequence: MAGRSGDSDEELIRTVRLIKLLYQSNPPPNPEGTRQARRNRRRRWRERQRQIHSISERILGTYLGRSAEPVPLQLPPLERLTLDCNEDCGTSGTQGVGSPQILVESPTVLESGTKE
In words: GST-Rev on glutathione-agarose column, elution with glutathione, immunoblot against FLAG. In general terms: Immunoblotting shows a protein as a band on a membrane.

The target in assay [2] is T3, LexA alone (bait control) (UniProt P0A7C2 1-202).
T3 construct: also called pLex9
T3 sequence: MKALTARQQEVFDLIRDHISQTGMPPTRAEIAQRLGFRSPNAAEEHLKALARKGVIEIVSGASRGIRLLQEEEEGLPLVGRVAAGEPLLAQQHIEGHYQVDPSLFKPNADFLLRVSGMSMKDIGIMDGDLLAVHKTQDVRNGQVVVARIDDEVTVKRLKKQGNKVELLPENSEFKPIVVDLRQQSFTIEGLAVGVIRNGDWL
The assay is described as follows: two-hybrid test in HeLa cells, SEAP reporter.

Assay [3] deals with T3, LexA alone (bait control). The assay is described as follows: yeast two-hybrid, beta-galactosidase filter test; W = white after 6 h.

B1: SHPT-8 produced in bacteria (N-terminal FLAG epitope), purified (designed binder)
chain: MSDQEAKPSTEDLGDKKEGEYIKLKVIGQDSSEIHFKVKMTTHLKKLKESYCQRQGVPMNSLRFLFEGQRIADNHTPKELGMEEEDVIEVYQEQTARPPNPKKEIELGGGGSFTMRGVDPGRKKRRQRRRG
notes: also called pFLAG-SUMO-1-P 8
For B1, the binding result (with Rev protein of HIV-1; in assay [1]) was “no binding” throughout.

In the case of ITRRIEMPGRDIPGVDGSILRGCWDPGRKKRRQRRRG (designed binder) [Mammalian prey FLAG-NLS-Vp16 activation domain-heptapeptide-Tat PTD, pSG-FNV-P-T9], the binding result in assay [2] is given as “no binding”. On to GGGGSITRRIEMPGRDIPGVDGSILRGCWDPGRKKRRQRRRG (designed binder) [Yeast prey GAL4 activation domain-heptapeptide-Tat PTD, clone 9 (LexTat screening)], for which the binding result in assay [3] is “no binding”.

The record behind these values is US20060240516A1 (ECOLE NORMALE SUPERIEURE DE LYON, published 2006).
